The record followed here is patent US20240109974A1 (SHANDONG SIMCERE BIOPHARMACEUTICAL, published 2024).

The chains are these.
B1: 001-Hu5 (antibody, V domains shown)
VH: EVQLVESGGGLVQPGGSLRLSCAASGFAFSTYDLSWVRQAPGKGLEWVAYINNGGISTYYSDTVKGRFTISRDNAKNTLYLQMNSLRAEDTAVYYCVRGPFYGSANYFDYWGQGTLVTVSS
VL: DIQMTQSPSSLSASVGDRVTITCRTSESIYSNLPWYQQKPGKSPKLLVYDATKLAEGVPSRFSGSGSGTDYTLTISSLQPEDFATYYCQHFWVTPWTFGQGTKVEIK
notes: Humanized form of #001; also called VH1 + VL4
B2: 001-Hu4 (antibody, V domains shown)
VH: B1 VH with T78S
VL: B1 VL
notes: Humanized form of #001; also called VH2 + VL4
B3: 001-Hu1 (antibody, V domains shown)
VH: B1 VH
VL: B1 VL with S43A, V48L
notes: Humanized form of #001; also called VH1 + VL1
B4: 001-Hu3 (antibody, V domains shown)
VH: B1 VH
VL: B1 VL with S43A, V48I
notes: Humanized form of #001; also called VH1 + VL3
B5: 001-Hu2 (antibody, V domains shown)
VH: B1 VH with T78S
VL: B1 VL with V48I, Y71F
notes: Humanized form of #001; also called VH2 + VL2
B6: 219-Hu3 (antibody, V domains shown)
VH: QVQLVQSGAEVKKPGSSVKVSCKASGYSFTNYWMNWVRQAPGQGLEWMGMIHPSDTETRLNQNFKDRVTITADKSTSTAYMELSSLRSEDTAVYYCARGEGLGAARSVSMDYWGQGTLVTVSS
VL: DIQMTQSPSSLSASVGDRVTITCRASQDISNYLNWYQQKPDGTVKLLIYYTAILHSGVPSRFSGSGSGTDYSLTISSLQPEDFATYFCQQGNTLPWTFGQGTKVEIK
notes: also called VH5 + VL5
B7: 219-Hu4 (antibody, V domains shown)
VH: B6 VH with R38K, M48I, R67K, V68A, I70L, A72V
VL: B6 VL
notes: also called VH6 + VL5
B8: 219-Hu5 (antibody, V domains shown)
VH: B6 VH with A72V
VL: B6 VL
notes: also called VH7 + VL5
B9: 219-Hu1 (antibody, V domains shown)
VH: B6 VH with S16A, G44R, A72R, K74T, T76A
VL: B6 VL
notes: also called VH3 + VL5
B10: 219-Hu2 (antibody, V domains shown)
VH: B6 VH with R67K, V68A
VL: B6 VL
notes: also called VH4 + VL5
B11: 001-WT (antibody, V domains shown)
VH: B1 VH with V5Q, R19N, A40T, G42E, G44R, N84S, R87K, A88S, V93M, L116T
VL: EIVMTQSPASLSLSVGETVTITCRTSESIYSNLPWYQQKQGKSPQLLVYDATKLAEGVPSRFSGSESGTQYSLKINSLQSEDFGTYYCQHFWVTPWTFGGGTKLEIK
notes: Human-murine chimeric wild-type molecule; also called human-murine chimeric antibody WT of #001
B12: 224-WT (antibody, V domains shown)
VH: EVQLQESGPEIVKPGASVKLSCTASGFNNKDIYMHWVKQRPEQGLEWIGRIDPATGNTKHDPKFQDKATLSSDTSSNTAYLQFSSLTSEDTAVYYCAHSPYGDFGAMDYWGQGTTVTVSS
VL: DIQMTQSPAIMSASLGERVTMTCTASSSVSSNYLHWYQQKPGSSPKLWIYSTSNLPSGVPARFSGSGSGTSYSLTISSMEAEDAATYYCHQYHRSPWTFGGGTKLEIK
notes: Human-murine chimeric wild-type molecule; also called human-murine chimeric antibody WT of #224
B13: 219-WT (antibody, V domains shown)
VH: EVQLQESGAELVRPGASVKLSCKASGYSFTNYWMNWVKQRPGQGLEWIGMIHPSDTETRLNQNFKDKATLTVDKSSSTSYMQLSSPTSEDSAVYYCARGEGLGAARSVSMDYWGQGTTVTVSS
VL: B6 VL with Q3L, V15L, T22S, L46V, S77N, Q79E, P80Q, F83I, Q100G, V104L
notes: Human-murine chimeric wild-type molecule

Where a chain is given by its changes, count along the chain named.

The first assay addresses T1, Cynomolgus TNFR2-His (Sino 90102-C08H) (cynomolgus monkey, UniProt A0A2K5VET2 132-366).
T1 construct: Bought protein; also called cynomolgus monkey TNFR2; recombinant cynomolgus monkey TNFR2 protein; not shown: His tag
T1 sequence: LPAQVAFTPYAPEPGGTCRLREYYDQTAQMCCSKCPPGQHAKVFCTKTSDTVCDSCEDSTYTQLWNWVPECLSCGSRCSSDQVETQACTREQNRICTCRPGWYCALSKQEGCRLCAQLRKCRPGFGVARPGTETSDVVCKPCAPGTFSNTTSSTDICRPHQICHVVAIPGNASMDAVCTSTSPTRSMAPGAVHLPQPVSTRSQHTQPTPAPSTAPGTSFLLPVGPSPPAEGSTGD
As to the kind of experiment: ELISA, cynomolgus TNFR2-His coated; EC50 against 001-WT. The protocol: (§1) The test humanized antibody against TNFR2 (as described in Example 1, the antibody was comprised of variable regions linked to IgG-Fc; the WT chimeric antibody also adopted the IgG-Fc structure) was subjected to 3.33-fold gradient dilution, loaded with 100 μl/well, and incubated with shaking at room temperature for 1.5 hours. The plate was washed, and then a working solution of murine anti-human IgG Fc-HRP (diluted at 1:10000) was added, loaded with 100 μl/well, and incubated with shaking at room temperature for 1.0 hour. The plate was washed again, and then the substrate TMB of HRP was added to develop colour. A stop solution was added to stop the reaction, and then a microplate reader (MD 13) was used to read the absorbance value. The binding curve of an antibody was drawn with antibody concentration as the abscissa and corresponding OD value as the ordinate, and fitted with four parameters (GraphPad Prism9) to calculate the EC50 value. The smaller the EC50 value, the stronger the binding ability of an antibody to human/cynomolgus monkey TNFR2. The binding effect of a humanized antibody was normalized to its corresponding human-murine chimeric antibody WT (see SEQ ID NOs: 38-43 for the sequence). The higher the percentage value, the better the binding effect of the humanized antibody. The results of binding of an anti-TNFR2 antibody to a human TNFR2 protein are shown in FIG. 1 and Table 4, and the results of binding of an anti-TNFR2 antibody to cynomolgus monkey TNFR2 are shown in FIG. 2 and Table 4.
As to B1, the “% Relative activity (WT antibody/test antibody)” value was 105%.
As for B2, the “% Relative activity (WT antibody/test antibody)” value is 106%.
For the molecule B3, the “% Relative activity (WT antibody/test antibody)” value was determined as 108%.
Consider B4, for which the “% Relative activity (WT antibody/test antibody)” value was found to be 105%.
Still for that read-out and setting: for B5 the value was 107%.

The target in the next assay is T1, Cynomolgus TNFR2-His (Sino 90102-C08H). As to the kind of experiment: ELISA, cynomolgus TNFR2-His coated; EC50 against 219-WT. The protocol: as §1
With B6, the “% Relative activity (WT antibody/test antibody)” value came out at 90.4%.
For the molecule B7, the “% Relative activity (WT antibody/test antibody)” value was determined as 93.1%.
As to B8, the “% Relative activity (WT antibody/test antibody)” value turned out to be 93.4%.
In the case of B9, the “% Relative activity (WT antibody/test antibody)” value was determined as 77.5%.
Still for that read-out and setting: for B10 the value was 102%.

A further assay concerns the target T2, human TNFR2 on the surface of CHO-TNFR2 cells (human, UniProt P20333 23-461).
T2 construct: whole, on cells
T2 sequence (looked up): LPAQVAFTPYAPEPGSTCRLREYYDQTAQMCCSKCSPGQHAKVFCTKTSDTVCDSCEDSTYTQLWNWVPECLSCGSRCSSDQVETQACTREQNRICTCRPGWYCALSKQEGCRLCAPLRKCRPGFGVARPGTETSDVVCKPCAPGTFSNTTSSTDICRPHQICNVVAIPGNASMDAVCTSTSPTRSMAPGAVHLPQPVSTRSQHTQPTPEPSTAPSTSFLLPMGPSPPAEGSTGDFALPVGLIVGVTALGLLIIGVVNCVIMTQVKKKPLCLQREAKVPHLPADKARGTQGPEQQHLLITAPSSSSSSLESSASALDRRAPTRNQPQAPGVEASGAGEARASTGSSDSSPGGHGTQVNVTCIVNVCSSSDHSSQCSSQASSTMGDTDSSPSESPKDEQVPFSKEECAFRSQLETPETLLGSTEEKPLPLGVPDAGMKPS
As to the kind of experiment: flow cytometry on CHO-TNFR2 cells; AUC, reference itself. The protocol: (§2) The transfected full-length plasmid of human TNFR2 was purchased from Sino Biological (Cat #HG10417-UT, NCBI Ref Seq: NM_001066.2). The experiment was conducted at a cell density within 80%. The cell medium was discarded; the cells were rinsed with PBS, and digested with 1 ml trypsin for 2 minutes; the digestion was stopped with a Ham's F12 complete medium containing 10% FBS, and then a cell suspension was made. The cell suspension was counted, and then an appropriate amount of cell suspension was centrifuged at 350×g; the supernatant was discarded; a corresponding volume of blocking solution (10% FBS+PBS) at a density of 1×10⁷ cells/ml was added to resuspend the cells, and the mixture was incubated at 4° C. for 30 minutes. After the incubation, the mixture was centrifuged at 350×g to remove the supernatant, and the cells were resuspended in a staining buffer (2% FBS+PBS) to a density of 2×10⁶ cells/ml, and spread onto a 96-well plate, with 50 μl of cell suspension added to each well for later use. The antibody was diluted with PBS for 10-fold gradient dilution from the highest concentration of 20 μg/m (twice the concentration); the diluted antibody was added to the well containing 50 μl of cell suspension, and placed on a microplate shaker for shaking at 500 rpm for 1 minute, so that the antibody was fully mixed with the cells; the mixture was incubated at 4° C. for 1 h. After the incubation, the cells were washed twice with the staining buffer, with 100 μl per well, and centrifuged at 350-g for 5 minutes, and the supernatant was discarded. […] After the staining, similarly, the cells were washed twice with the staining buffer; finally, the cells were resuspended in 200 μl of staining buffer; signals were detected by a flow cytometer (Thermo Attune NxT). […] The binding curve of an antibody was drawn with antibody concentration as the abscissa and corresponding mean fluorescence intensity (MFI) fold as the ordinate, and fitted with four parameters (GraphPad Prism9) to calculate the EC50 value.
(In flow cytometry, cells or beads pass a laser one at a time.)
Turning to B11, the “% Relative activity (Test antibody/WT antibody)” value worked out at 100%.
Take B12: the “% Relative activity (Test antibody/WT antibody)” value came to 100%.
Still for that read-out and setting: as for B13, the figure is 100%.

For another assay, the target named is T2, human TNFR2 on the surface of CHO-TNFR2 …. The experiment in a line: flow cytometry on CHO-TNFR2 cells; EC50, reference itself. The protocol: as §2
On to B11, for which the “% Relative activity (WT antibody/test antibody)” value was 100%.
In the case of B12, the “% Relative activity (WT antibody/test antibody)” value was 100%.
As for B13, the “% Relative activity (WT antibody/test antibody)” value was found to be 100%.
